The record followed here is patent US20250296996A1 (BROADWING BIO, published 2025).

In test [1] the target is T1, P60 (huANGPTL7-Fibrinogen-his) (human, UniProt O43827 129-343).
T1 construct: also called human ANGPTL7 fibrinogen domain; not shown: C-terminal short linker and His tag
T1 sequence: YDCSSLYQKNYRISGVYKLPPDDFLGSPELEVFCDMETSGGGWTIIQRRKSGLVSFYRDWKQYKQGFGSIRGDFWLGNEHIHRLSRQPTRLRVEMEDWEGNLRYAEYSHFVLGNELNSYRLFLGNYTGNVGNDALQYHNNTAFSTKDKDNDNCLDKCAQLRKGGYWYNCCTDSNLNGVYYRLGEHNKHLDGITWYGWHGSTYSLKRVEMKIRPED
The test can be described thus: BLI Octet HTX; IgG on AHC sensor; P60 at 200 nM; 1:1 fit. An outline of the steps:
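Anti-ANGPTL7 IgG at 50 nM loaded 5 min on AHC biosensors, then dipped in monovalent P60 at 200 nM: 5 min association, 10 min dissociation.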

Test [2] concerns the target T2, Pext-01 (huANGTPL7-FLAG multimer) (human, UniProt O43827 27-346).
T2 construct: also called PExt-1; human wild type ANGPTL7 multimer; not shown: FLAG tag
T2 sequence: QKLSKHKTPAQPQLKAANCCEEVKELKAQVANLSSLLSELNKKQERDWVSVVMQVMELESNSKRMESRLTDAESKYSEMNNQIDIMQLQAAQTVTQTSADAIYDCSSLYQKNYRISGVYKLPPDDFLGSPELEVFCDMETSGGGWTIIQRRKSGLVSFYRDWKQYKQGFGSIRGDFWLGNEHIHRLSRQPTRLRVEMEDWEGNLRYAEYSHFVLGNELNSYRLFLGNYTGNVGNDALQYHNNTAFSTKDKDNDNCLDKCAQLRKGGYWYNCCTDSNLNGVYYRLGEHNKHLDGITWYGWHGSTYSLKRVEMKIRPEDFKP
The test can be described thus: BLI Octet HTX; IgG on AHC sensor; Pext-01 at 100 nM; 1:1 fit; apparent KD. In short, it runs like this: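 Antibodies at 50 nM were captured on AHC biosensors for 5 min in PBS pH 7.4 with 0.1 mg/ml BSA, 0.05% sodium azide and 0.02% Tween 20.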

Test [3] has as its target T1, P60 (huANGPTL7-Fibrinogen-his). Nature of the test: BLI Octet HTX; IgG on AHC sensor; P60 at 200 nM. The method, then:
ANGPTL7 Antibody Kinetics. Experiments were conducted to determine the reactivity and dissociation constants (KD) of anti-ANGPTL7 antibodies with the human fibrinogen domain of the ANGPTL7 protein. Binding experiments were performed on Octet HTX (ForteBio) in 1×PBS, pH 7.4, 0.1 mg/ml BSA, 0.05% Sodium Azide, and 0.02 Tween 20. Antibodies at a concentration of 50 nM were loaded on pre-hydrated AHC biosensors for 5 min. The loaded sensors were dipped into monovalent P60 (huANGPTL7-Fibrinogen-his) at a concentration of 200 nM for 5 min association, followed by 10 min dissociation. […] Responses (nm) at the end of association were also determined (Table 2).

The target of test [4] is T3, P66 (rabbit ANGPTL7-his) (rabbit, UniProt G1T4P1 27-344).
T3 construct: mature; also called rabbit ANGPTL7 protein
T3 sequence: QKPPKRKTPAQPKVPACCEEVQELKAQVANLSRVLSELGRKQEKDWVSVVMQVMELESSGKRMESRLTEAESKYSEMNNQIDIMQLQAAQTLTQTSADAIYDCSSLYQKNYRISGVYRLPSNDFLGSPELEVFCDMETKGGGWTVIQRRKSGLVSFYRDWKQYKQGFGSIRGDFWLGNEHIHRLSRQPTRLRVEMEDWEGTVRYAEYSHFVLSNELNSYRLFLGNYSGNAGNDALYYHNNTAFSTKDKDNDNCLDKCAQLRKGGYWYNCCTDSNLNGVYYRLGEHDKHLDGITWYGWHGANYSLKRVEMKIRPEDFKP
Nature of the test: BLI Octet HTX; IgG on AHC sensor; P66 at 200 nM; 1:1 fit. In short, it runs like this:
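Biolayer interferometry in PBS pH 7.4 with 0.1 mg/ml BSA, 0.05% sodium azide, 0.02% Tween 20; antibodies at 50 nM loaded on AHC sensors for 5 min. Monovalent analyte at 200 nM: 5 min association, 10 min dissociation; end-of-association response (nm) recorded, kinetics by 1:1 fit.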

Test [5] has as its target T4, P63 (huANGTPL7-GGPGG_sub-his) (human, UniProt O43827 27-346).
T4 construct: also called full length human ANGPTL7 monomeric variant L59 GGPGG; not shown: C-terminal short linker and His tag
T4 sequence: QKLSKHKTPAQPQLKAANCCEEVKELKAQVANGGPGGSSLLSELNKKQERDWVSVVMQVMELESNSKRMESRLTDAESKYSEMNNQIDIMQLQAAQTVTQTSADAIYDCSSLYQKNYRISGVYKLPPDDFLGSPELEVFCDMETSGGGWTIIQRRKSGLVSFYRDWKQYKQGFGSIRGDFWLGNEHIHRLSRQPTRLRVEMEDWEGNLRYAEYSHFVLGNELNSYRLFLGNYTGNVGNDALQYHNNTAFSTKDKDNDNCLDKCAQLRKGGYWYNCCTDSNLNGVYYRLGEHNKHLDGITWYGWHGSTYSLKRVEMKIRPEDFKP
The test can be described thus: BLI Octet HTX; IgG on AHC sensor; P63 at 100 nM. The procedure: Experiments were also conducted to determine the reactivity and dissociation constants (KD) of anti-ANGPTL7 antibodies with the human ANGPTL7 GGPGG_sub-his protein. Binding experiments were performed on Octet HTX (ForteBo) in 1×PBS, pH 7.4, 0.1 mg/mi BSA, 0.05% Sodium Azide, and 0.02% Tween 20. Antibodies at a concentration of 50 nM were loaded on pre-hydrated AHC biosensors for 5 min. The loaded sensors were dipped into monovalent P63 (huANGTPL7-GGPGG_sub-his) at a concentration of 100 nM for 5 min of association, followed by 10 min of dissociation.

B1: ATX-P-428 (antibody, human IgG1, kappa, N297A, V domains shown)
VH: QVQLVQSGAEVKKPGASVKVSCKASGYTFSSYGISWVRQAPGQGLEWMGWISAYNGNTNYAQNLRGRVAMTTDTSTTTAYMELRSLRSDDTAVYYCARVSLVWFGELPRGFDYWGQGTLVTVSS
VL: not shown
notes: Full chains (VH + hIgG1-Agly-Fc)
As for B1, the Response in test [1] stood at 0.02 nm; in test [2] it was 0.05 nm; in test [4] it was 0.04 nm. In addition, the binding result in test [3] is “no binding (tested: 200 nM)”; in test [5], “no binding (tested: 100 nM)”.

B2: ATX-P-443 (antibody, human IgG1, kappa, N297A, V domains shown)
VH: QVQLVQSGAEVKKPGASVKVSCKASGYTFTSYGISWVRQAPGQGLEWMGWIIAYNGNTNYAQKLQGRITMTTNTSTNTAYMELRSLRSDDTAVYYCGRDTGFSFDYWGQGTLVTVSS
VL: not shown
notes: as for B1
Consider B2, for which the figures for the Response in test [1], in test [2] and in test [4] were 0.01 nm, 0.03 nm and 0.03 nm, respectively. Moreover, the results for the binding result in test [3] and in test [5] were “no binding (tested: 200 nM)” and “no binding (tested: 100 nM)”, respectively.

B3: ATX-P-449 (antibody, human IgG1, kappa, N297A, V domains shown)
VH: QVQLVESGGGVVQPGRSLRLSCAASGFAFSSYGMHWVRQAPGKGLEWVAVISYYGSNKYYADSVKGRFTISRDNSKNTLYLQMNSLRAEDTAVYHCARGITMDVWGKGTTVTVSS
VL: EIVLTQSPATLSLSPGERATLSCRASQSVSSYLAWYQQKPGQAPRLLIYDASNRATGIPARFSGSGSGTDFTLTISSLEPEDFAVYYCQQRSNWPLTFGGGTKVEIKR
notes: as for B1
With B3, the Response amounted to 0.08 nm in test [1], 0.65 nm in test [2] and 0.74 nm in test [4]. Also, the results for the binding result in test [3] and in test [5] were “no binding (tested: 200 nM)” and “no binding (tested: 100 nM)”, respectively. Further, binding in test [4] was put at a Kd of 0.626 nM.
